Experiments:
[1] = tested on: ALU30-19
[2] = tested on: ALU30-17
[3] = tested on: ALU30-16
[4] = tested on: ALU30-5
[5] = tested on: ALU30-11
[6] = tested on: ALU30-8
[7] = tested on: ALU30-12
[8] = tested on: ALU30-1
[9] = tested on: ALU30-6
[10] = tested on: ALU30-7
[11] = tested on: ALU30-14
[12] = tested on: ALU30-15
[13] = tested on: ALU30-9
[14] = tested on: ALU30-13
[15] = tested on: ALU30-18
[16] = tested on: ALU30-10
[17] = tested on: ALU30-2
[18] = tested on: ALU30-4
[19] = tested on: ALU30-3
ALU30-3, sequence (chain, as listed by the source): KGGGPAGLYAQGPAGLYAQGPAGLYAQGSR

ALU30-19, sequence (chain, as listed by the source): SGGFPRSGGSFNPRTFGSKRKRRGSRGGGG
ALU30-9, sequence (chain, as listed by the source): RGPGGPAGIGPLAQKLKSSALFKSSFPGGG
ALU30-8, sequence (chain, as listed by the source): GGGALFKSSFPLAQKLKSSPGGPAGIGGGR
ALU30-15, sequence (chain, as listed by the source): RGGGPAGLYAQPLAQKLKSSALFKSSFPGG
ALU30-1, sequence (chain, as listed by the source): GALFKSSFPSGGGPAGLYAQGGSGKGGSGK
ALU30-16, sequence (chain, as listed by the source): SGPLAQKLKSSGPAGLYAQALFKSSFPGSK
MMP-9, recombinant human, sequence (chain, as listed by the source): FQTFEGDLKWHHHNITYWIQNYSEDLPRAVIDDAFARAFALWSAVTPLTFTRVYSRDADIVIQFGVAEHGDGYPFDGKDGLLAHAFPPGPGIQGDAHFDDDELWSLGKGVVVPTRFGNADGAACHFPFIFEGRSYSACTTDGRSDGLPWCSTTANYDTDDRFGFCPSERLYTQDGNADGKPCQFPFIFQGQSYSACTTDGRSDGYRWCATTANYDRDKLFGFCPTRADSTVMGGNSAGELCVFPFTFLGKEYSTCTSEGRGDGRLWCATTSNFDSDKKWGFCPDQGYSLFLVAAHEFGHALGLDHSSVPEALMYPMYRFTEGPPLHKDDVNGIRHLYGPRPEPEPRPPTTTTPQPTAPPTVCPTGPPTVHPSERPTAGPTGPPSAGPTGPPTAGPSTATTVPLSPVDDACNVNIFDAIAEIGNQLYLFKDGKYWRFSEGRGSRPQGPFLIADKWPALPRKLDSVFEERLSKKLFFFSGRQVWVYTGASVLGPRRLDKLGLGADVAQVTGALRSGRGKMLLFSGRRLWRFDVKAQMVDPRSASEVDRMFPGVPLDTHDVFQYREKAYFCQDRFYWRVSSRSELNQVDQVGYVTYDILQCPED
Factor Xa, recombinant human, sequence (chain): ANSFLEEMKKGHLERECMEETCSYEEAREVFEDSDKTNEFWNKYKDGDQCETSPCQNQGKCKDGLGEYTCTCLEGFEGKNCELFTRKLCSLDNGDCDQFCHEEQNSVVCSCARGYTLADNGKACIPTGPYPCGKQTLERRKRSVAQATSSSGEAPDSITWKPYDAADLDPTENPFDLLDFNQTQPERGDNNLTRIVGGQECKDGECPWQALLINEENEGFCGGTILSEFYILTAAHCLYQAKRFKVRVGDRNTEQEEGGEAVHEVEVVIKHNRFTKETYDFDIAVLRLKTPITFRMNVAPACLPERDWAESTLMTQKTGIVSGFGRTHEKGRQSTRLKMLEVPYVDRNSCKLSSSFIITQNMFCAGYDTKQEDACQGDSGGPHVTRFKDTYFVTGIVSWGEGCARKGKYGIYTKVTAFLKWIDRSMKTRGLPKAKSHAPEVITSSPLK
ALU30-12, sequence (chain, as listed by the source): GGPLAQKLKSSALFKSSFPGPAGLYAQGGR
ALU30-14, sequence (chain, as listed by the source): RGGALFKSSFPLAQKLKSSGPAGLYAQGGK
hepsin, recombinant human, sequence (chain, as listed by the source): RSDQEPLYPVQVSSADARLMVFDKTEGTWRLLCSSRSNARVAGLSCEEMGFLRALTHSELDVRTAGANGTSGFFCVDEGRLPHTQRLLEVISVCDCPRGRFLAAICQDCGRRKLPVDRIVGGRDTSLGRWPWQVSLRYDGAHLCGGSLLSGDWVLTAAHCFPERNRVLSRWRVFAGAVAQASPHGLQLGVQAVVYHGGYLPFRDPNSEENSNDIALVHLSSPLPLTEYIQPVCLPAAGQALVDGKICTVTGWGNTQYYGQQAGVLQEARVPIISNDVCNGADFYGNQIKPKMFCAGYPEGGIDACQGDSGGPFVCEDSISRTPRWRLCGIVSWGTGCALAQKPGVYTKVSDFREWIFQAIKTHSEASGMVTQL
ALU30-2, sequence (chain, as listed by the source): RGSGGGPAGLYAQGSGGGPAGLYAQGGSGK
ALU30-13, sequence (chain, as listed by the source): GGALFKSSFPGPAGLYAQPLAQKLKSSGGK
ALU30-6, sequence (chain, as listed by the source): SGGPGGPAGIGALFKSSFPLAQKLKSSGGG
ALU30-5, sequence (chain, as listed by the source): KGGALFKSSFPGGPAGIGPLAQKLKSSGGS
ALU30-10, sequence (chain, as listed by the source): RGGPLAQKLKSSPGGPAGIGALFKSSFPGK
ALU30-7, sequence (chain, as listed by the source): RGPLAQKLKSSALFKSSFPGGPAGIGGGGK
ALU30-11, sequence (chain, as listed by the source): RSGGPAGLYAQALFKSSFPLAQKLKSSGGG
ALU30-4, sequence (chain, as listed by the source): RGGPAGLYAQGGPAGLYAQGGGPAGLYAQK
ALU30-18, sequence (chain, as listed by the source): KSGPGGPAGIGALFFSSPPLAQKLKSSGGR
ALU30-17, sequence (chain, as listed by the source): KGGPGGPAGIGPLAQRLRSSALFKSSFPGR

Substance	30-mer peptide degradation by recombinant enzyme (MSP-MS) [1]	comparison of cleavage efficiencies across the 30-mer library [3]	30-mer peptide degradation by recombinant enzyme (MSP-MS) [4]	30-mer peptide degradation by recombinant enzyme (MSP-MS) [6]	30-mer peptide degradation by recombinant enzyme (MSP-MS) [7]	30-mer peptide degradation by recombinant enzyme (MSP-MS) [8]	30-mer peptide degradation by recombinant enzyme (MSP-MS) [9]	30-mer peptide degradation by recombinant enzyme (MSP-MS) [10]	30-mer peptide degradation by recombinant enzyme (MSP-MS) [11]	30-mer peptide degradation by recombinant enzyme (MSP-MS) [12]	30-mer peptide degradation by recombinant enzyme (MSP-MS) [13]	30-mer peptide degradation by recombinant enzyme (MSP-MS) [14]	30-mer peptide degradation by recombinant enzyme (MSP-MS) [16]	also measured
Factor Xa, recombinant human	Peptide Alu30-19 with this motif was completely degraded before the 5 min time point	the lowest susceptibility to thrombin, Factor Xa, and hepsin	the only library peptide with significant cleavage was Alu30-5, cleaved at the CTSL1_1 motif ALFKS|SFP (SEQ ID NO: 198), upstream of a FAPa_1 motif	all other peptides bearing a CTSL1_1 motif were cleaved by Factor Xa at either ALF|KSSFP (SEQ ID NO: 198) or ALFKS|SFP (SEQ ID NO: 198)	all other peptides bearing a CTSL1_1 motif were cleaved by Factor Xa at either ALF|KSSFP (SEQ ID NO: 198) or ALFKS|SFP (SEQ ID NO: 198)	all other peptides bearing a CTSL1_1 motif were cleaved by Factor Xa at either ALF|KSSFP (SEQ ID NO: 198) or ALFKS|SFP (SEQ ID NO: 198)	all other peptides bearing a CTSL1_1 motif were cleaved by Factor Xa at either ALF|KSSFP (SEQ ID NO: 198) or ALFKS|SFP (SEQ ID NO: 198)	all other peptides bearing a CTSL1_1 motif were cleaved by Factor Xa at either ALF|KSSFP (SEQ ID NO: 198) or ALFKS|SFP (SEQ ID NO: 198)	all other peptides bearing a CTSL1_1 motif were cleaved by Factor Xa at either ALF|KSSFP (SEQ ID NO: 198) or ALFKS|SFP (SEQ ID NO: 198)	all other peptides bearing a CTSL1_1 motif were cleaved by Factor Xa at either ALF|KSSFP (SEQ ID NO: 198) or ALFKS|SFP (SEQ ID NO: 198)	all other peptides bearing a CTSL1_1 motif were cleaved by Factor Xa at either ALF|KSSFP (SEQ ID NO: 198) or ALFKS|SFP (SEQ ID NO: 198)	all other peptides bearing a CTSL1_1 motif were cleaved by Factor Xa at either ALF|KSSFP (SEQ ID NO: 198) or ALFKS|SFP (SEQ ID NO: 198)	all other peptides bearing a CTSL1_1 motif were cleaved by Factor Xa at either ALF|KSSFP (SEQ ID NO: 198) or ALFKS|SFP (SEQ ID NO: 198)	30-mer peptide degradation by recombinant enzyme (MSP-MS) [2]: all other peptides bearing a CTSL1_1 motif were cleaved by Factor Xa at either ALF|KSSFP (SEQ ID NO: 198) or ALFKS|SFP (SEQ ID NO: 198); 30-mer peptide degradation by recombinant enzyme (MSP-MS) [3]: all other peptides bearing a CTSL1_1 motif were cleaved by Factor Xa at either ALF|KSSFP (SEQ ID NO: 198) or ALFKS|SFP (SEQ ID NO: 198); 30-mer peptide degradation by recombinant enzyme (MSP-MS) [5]: all other peptides bearing a CTSL1_1 motif were cleaved by Factor Xa at either ALF|KSSFP (SEQ ID NO: 198) or ALFKS|SFP (SEQ ID NO: 198); 30-mer peptide degradation by recombinant enzyme (MSP-MS) [15]: The peptide with the motif CTSL1_2 was cleaved at the lowest efficiency
MMP-9, recombinant human			The FAPa_1 motif was not cleaved by MMP9, however, when followed either by the ADAM17_2 motif or the spacing residues GG	The FAPa_1 motif was not cleaved by MMP9, however, when followed either by the ADAM17_2 motif or the spacing residues GG	The slowest peptides bear the MMP14_1 motif near the C-terminus of the 30-mer peptide	The single or double MMP14_1 motif-bearing peptides were next in the order	the FAPa_1 motif was also cleaved within the peptides bearing FAPa_1 directly followed by the CTSL1_1 motif at PGGPAG|IGALF (SEQ ID NO: 247); these were lower efficiency cleavages	The FAPa_1 motif was not cleaved by MMP9, however, when followed either by the ADAM17_2 motif or the spacing residues GG	The slowest peptides bear the MMP14_1 motif near the C-terminus of the 30-mer peptide	The next most efficient substrates contained the pair of motifs where MMP14_1 was followed directly by ADAM17_2	The FAPa_1 motif was not cleaved by MMP9, however, when followed either by the ADAM17_2 motif or the spacing residues GG	The next most efficient substrates contained the pair of motifs where MMP14_1 was followed directly by ADAM17_2	the FAPa_1 motif was also cleaved within the peptides bearing FAPa_1 directly followed by the CTSL1_1 motif at PGGPAG|IGALF (SEQ ID NO: 247); these were lower efficiency cleavages	product formation at single bonds (MSP-MS) [8]: the specific cleavage of the Alu30-2 peptide was more efficient than the Alu30-1 peptide; 30-mer peptide degradation by recombinant enzyme (MSP-MS) [17]: The single or double MMP14_1 motif-bearing peptides were next in the order; product formation at single bonds (MSP-MS) [17]: the specific cleavage of the Alu30-2 peptide was more efficient than the Alu30-1 peptide; 30-mer peptide degradation by recombinant enzyme (MSP-MS) [18]: The most efficient MMP9 substrates were those that bore three-repeats of the MMP14_1 motif; 30-mer peptide degradation by recombinant enzyme (MSP-MS) [19]: The most efficient MMP9 substrates were those that bore three-repeats of the MMP14_1 motif
hepsin, recombinant human	Alu30-19 was cleaved at all three motifs within the first 15 min of the reaction	the lowest susceptibility to thrombin, Factor Xa, and hepsin												apparent catalytic efficiency (kcat/KM) [1]: The authentic peptide Alu30-19, as well as the top cleaved peptides Alu30-8,-9, -12, and -14 all had apparent catalytic efficiencies on the same order of 105; apparent catalytic efficiency (kcat/KM) [6]: The authentic peptide Alu30-19, as well as the top cleaved peptides Alu30-8,-9, -12, and -14 all had apparent catalytic efficiencies on the same order of 105; apparent catalytic efficiency (kcat/KM) [7]: The authentic peptide Alu30-19, as well as the top cleaved peptides Alu30-8,-9, -12, and -14 all had apparent catalytic efficiencies on the same order of 105; apparent catalytic efficiency (kcat/KM) [11]: The authentic peptide Alu30-19, as well as the top cleaved peptides Alu30-8,-9, -12, and -14 all had apparent catalytic efficiencies on the same order of 105; comparison of cleavage efficiencies across the 30-mer library [12]: it had slightly higher hepsin susceptibility and lower CTSL1 activity; apparent catalytic efficiency (kcat/KM) [13]: The authentic peptide Alu30-19, as well as the top cleaved peptides Alu30-8,-9, -12, and -14 all had apparent catalytic efficiencies on the same order of 105

From patent US20230272028
